Patent US8642284B1, “Methods for identifying agents that alter NAD-dependent deacetylation activity of a SIR2 protein” (Massachusetts Institute of Technology, priority 1999, dated 2014)

Test system: NC(=O)c1ccc[n+]([C@@H]2O[C@H](COP(=O)([O-])OP(=O)(O)OC[C@H]3O[C@@H](n4cnc5c(N)ncnc54)[C@H](O)[C@@H]3O)[C@@H](O)[C@H]2O)c1
Test: NAD-dependent deacetylation of di-acetylated H3 peptide by recombinant yeast Sir2p (HPLC)
Assay type: biochemical
Conditions: other: reaction about 50% of maximal level; pH 9.0
Procedure: The typical reaction of Sir2 deacetylase activity was performed in 50 μl of buffer containing 50 mM Tris-HCl [pH 9.0], 4 mM MgCl2, 0.2 mM DTT, variable concentration of cold nicotinamide adenine dinucleotide (NAD) or NAD derivatives (SIGMA®, MO), 5-10 μg of the purified recombinant Sir2 proteins, and 10 μg of the histone H3 N-terminal tail peptide (amino acid 1-20) di-acetylated at positions 9 and 14 (Upstate Biotechnology™, NY). […] To detect the ADP-ribosylation activity, 8 μCi of NAD 5′-[α-^32P]triphosphate (˜1000 Ci/mmol, Amersham Pharmacia Biotech™, NJ) was added to the same reaction containing 1 μM cold NAD. Histone H3 protein (4 μg) (Roche Molecular Biochemicals™, IN) were used for this assay. All reaction mixtures were incubated at room temperature for 1 hr. Trichostatin A and coumermycin A1 (SIGMA™) were prepared in dimethylsulfoxide (DMSO, SIGMA®), and 5 μl of solvent or inhibitor was added to the reactions prior to adding Sir2 proteins.
After the incubation, the products were precipitated at −20° C. overnight by adding 50 μl of distilled water and 25 μl of 100% trichloroacetic acid (TCA) solution. […] The chromatograms at the absorbance of 210 nm were digitally recorded and analyzed by Hewlett Packard ChemStation™ system (version A.06.03 [509]). […] PTH amino acid chromatograms were recorded and analyzed by the ABI Model 610A2.1 data integration/analysis system. […]

Substance: Sir2p (Saccharomyces cerevisiae S288C)
- Km: 100 µM
